Biological target: mouse IgM (mouse)

GSDMD level (Western blot) in primary mouse AT2 treated for 16 h with iKP + r pIgR (0.5 ug/mL) + IgM (0.5 ug/mL), compared with non-treated cells: 326% | GSDMD-NT level (Western blot) in primary mouse AT2 treated for 16 h with iKP + r pIgR (0.5 ug/mL) + IgM (0.5 ug/mL), compared with non-treated cells: 13 fold
Substance: recombinant mouse polymeric immunoglobulin receptor (from UniProt O70570 19-771)

— PMC12241074
